{"source": "paper PMC7144947", "binders": {"B1": {"name": "Dicer1 RNA (ssRNA)", "RNA": "CCUGCAGCUCAUGACCCCUGCUUCC"}, "B2": {"name": "12th-24 Mut3 (ssRNA)", "RNA": "CGCGGCUUGCCCUAUUAUAGUGUAG"}, "B3": {"name": "12th-24 RNA unlabelled (structured_RNA)", "RNA": "CGCGGCUUGCCCUAUCGCGGUGUAG"}, "B4": {"name": "Sox2/Prox1 DNA (dsDNA)", "DNA 1": "CTAGCATTGTCTGGG", "DNA 2": "CCCAGACAATGCTAG"}, "B5": {"name": "Dnmt3b RNA (ssRNA)", "RNA": "CAGCUUUUCCCUGUAGUCAUGAAUG"}, "B6": {"name": "12th-15 RNA (ssRNA)", "RNA": "GCGGCAAGCCCAUACUCGCGUUCAA"}, "B7": {"name": "Prox1 DNA unlabelled (dsDNA)", "DNA 1": "CTAGCATTGTCTGGG", "DNA 2": "CCCAGACAATGCTAG"}, "B8": {"name": "12th-24 RNA (structured_RNA)", "RNA": "CGCGGCUUGCCCUAUCGCGGUGUAG"}}, "key": {"[1]": {"target": "Sox2(180-319) (Mus musculus, UniProt P48432 180-319)", "assay": "EMSA"}, "[2]": {"target": "Sox11 (UniProt Q7M6Y2 1-395)", "sequence (Q7M6Y2 whole entry)": "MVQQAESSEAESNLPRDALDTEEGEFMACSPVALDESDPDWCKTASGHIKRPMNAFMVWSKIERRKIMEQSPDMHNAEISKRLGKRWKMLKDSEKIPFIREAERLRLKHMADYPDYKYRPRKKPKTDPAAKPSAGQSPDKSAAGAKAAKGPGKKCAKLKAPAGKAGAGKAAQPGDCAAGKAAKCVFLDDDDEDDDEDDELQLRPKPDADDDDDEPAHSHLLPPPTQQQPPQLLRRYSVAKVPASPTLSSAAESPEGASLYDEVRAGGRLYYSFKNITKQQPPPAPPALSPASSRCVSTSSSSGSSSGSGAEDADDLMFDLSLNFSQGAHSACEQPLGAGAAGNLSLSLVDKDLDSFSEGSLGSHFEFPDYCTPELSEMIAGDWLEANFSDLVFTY", "assay": "EMSA"}, "[3]": {"target": "Sox2(120-319) (Mus musculus, UniProt P48432 120-319)", "assay": "EMSA"}, "[4]": {"target": "T1, Sox2-ΔHMG (Mus musculus, UniProt P48432 1-319, del41-118)", "assay": "EMSA"}, "[5]": {"target": "T2, Sox2-ΔRBM (Mus musculus, UniProt P48432 1-319, del121-180)", "assay": "in vitro RIP"}, "[6]": {"target": "Sox2-HMG (Mus musculus, UniProt P48432 41-120)", "assay": "competition"}, "[7]": {"target": "T1, Sox2-ΔHMG", "assay": "competition"}, "[8]": {"target": "T2, Sox2-ΔRBM", "assay": "competition"}, "[9]": {"target": "T2, Sox2-ΔRBM", "assay": "EMSA"}, "[10]": {"target": "T3, Sox2 (Mus musculus, UniProt P48432 1-319)", "assay": "EMSA"}, "[11]": {"target": "T3, Sox2", "assay": "EMSA", "remark": "listed apart in the source"}, "[12]": {"target": "T1, Sox2-ΔHMG", "assay": "competition", "remark": "listed apart in the source"}, "[13]": {"target": "T2, Sox2-ΔRBM", "assay": "EMSA", "remark": "listed apart in the source"}, "[14]": {"target": "Sox1 (Mus musculus, UniProt P53783 1-391)", "sequence (P53783 whole entry)": "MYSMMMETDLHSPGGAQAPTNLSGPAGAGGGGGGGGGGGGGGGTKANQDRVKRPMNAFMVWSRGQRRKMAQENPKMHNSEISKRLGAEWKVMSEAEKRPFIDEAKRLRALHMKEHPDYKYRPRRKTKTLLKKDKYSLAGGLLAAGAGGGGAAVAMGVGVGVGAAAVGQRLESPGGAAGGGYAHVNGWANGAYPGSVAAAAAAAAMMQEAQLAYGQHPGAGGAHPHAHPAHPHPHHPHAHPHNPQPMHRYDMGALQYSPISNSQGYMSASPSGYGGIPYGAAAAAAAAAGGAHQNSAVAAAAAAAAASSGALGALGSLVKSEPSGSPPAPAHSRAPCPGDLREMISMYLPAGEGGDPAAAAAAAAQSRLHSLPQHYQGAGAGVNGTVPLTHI", "assay": "EMSA"}, "[15]": {"target": "Sox2(1-180) (Mus musculus, UniProt P48432 1-180)", "assay": "EMSA"}, "[16]": {"target": "Sox2(1-120) (Mus musculus, UniProt P48432 1-120)", "assay": "EMSA"}}, "note": "Read-outs that look alike come from different tables or passages of the source.", "data": [{"binder": "B1", "values": [{"measurement": "binding result", "setting": "[1]", "result": "no binding"}, {"measurement": "binding result", "setting": "[2]", "result": "no binding"}, {"measurement": "binding result", "setting": "[3]", "result": "binds"}, {"measurement": "binding result", "setting": "[4]", "result": "binds"}]}, {"binder": "B2", "values": [{"measurement": "binding result", "setting": "[5]", "result": "binds"}]}, {"binder": "B3", "values": [{"measurement": "binding result", "setting": "[6]", "result": "no binding"}, {"measurement": "binding result", "setting": "[7]", "result": "binds"}, {"measurement": "binding result", "setting": "[8]", "result": "binds"}]}, {"binder": "B4", "values": [{"measurement": "binding result", "setting": "[9]", "result": "binds"}, {"measurement": "binding result", "setting": "[10]", "result": "binds"}, {"measurement": "binding result", "setting": "[2]", "result": "binds"}]}, {"binder": "B5", "values": [{"measurement": "binding result", "setting": "[1]", "result": "no binding"}, {"measurement": "binding result", "setting": "[2]", "result": "no binding"}, {"measurement": "binding result", "setting": "[3]", "result": "binds"}, {"measurement": "binding result", "setting": "[4]", "result": "binds"}]}, {"binder": "B6", "values": [{"measurement": "binding result", "setting": "[11]", "result": "binds"}, {"measurement": "binding result", "setting": "[2]", "result": "no binding"}]}, {"binder": "B7", "values": [{"measurement": "binding result", "setting": "[12]", "result": "no binding"}, {"measurement": "binding result", "setting": "[6]", "result": "binds"}, {"measurement": "binding result", "setting": "[8]", "result": "binds"}]}, {"binder": "B8", "values": [{"measurement": "binding result", "setting": "[11]", "result": "binds"}, {"measurement": "binding result", "setting": "[13]", "result": "binds"}, {"measurement": "binding result", "setting": "[1]", "result": "no binding"}, {"measurement": "binding result", "setting": "[14]", "result": "binds"}, {"measurement": "binding result", "setting": "[15]", "result": "binds"}, {"measurement": "binding result", "setting": "[4]", "result": "binds"}, {"measurement": "binding result", "setting": "[16]", "result": "binds"}]}]}
